Measured values reported in publication PMC7022901, “Back to GroEL-Assisted Protein Folding: GroES Binding-Induced Displacement of Denatured Proteins from GroEL to Bulk Solution” (Biomolecules, 2020).
Each block holds one binder with its values, some of them ahead of it.

Key:
[1] = biological target: T1, GroEL chaperonin (Escherichia coli, UniProt P0A6F5 1-548); assay: FRET or BRET; streptavidin trap: denatured biotin- and fluorescein-labeled substrate diluted into equimolar GroEL, then streptavidin-aequorin and free biotin added; BRET (I520/I470) from aequorin to fluorescein reports substrate free in bulk solution; with or without 10 mM Mg-ATP and two-fold molar excess of GroES; conditions: both partners purified
T1 construct: GroEL (hsp60) chaperonin of Escherichia coli, expressed from the cloned groE operon; 14 identical subunits of 57 kDa in two heptameric rings; no tag is mentioned; also called hsp60; GroEL14; source: E. coli HB101, multicopy plasmid pGroE4 (groE operon of E. coli in pACYC184), purified; copies: 14
T1 sequence (P0A6F5 whole entry): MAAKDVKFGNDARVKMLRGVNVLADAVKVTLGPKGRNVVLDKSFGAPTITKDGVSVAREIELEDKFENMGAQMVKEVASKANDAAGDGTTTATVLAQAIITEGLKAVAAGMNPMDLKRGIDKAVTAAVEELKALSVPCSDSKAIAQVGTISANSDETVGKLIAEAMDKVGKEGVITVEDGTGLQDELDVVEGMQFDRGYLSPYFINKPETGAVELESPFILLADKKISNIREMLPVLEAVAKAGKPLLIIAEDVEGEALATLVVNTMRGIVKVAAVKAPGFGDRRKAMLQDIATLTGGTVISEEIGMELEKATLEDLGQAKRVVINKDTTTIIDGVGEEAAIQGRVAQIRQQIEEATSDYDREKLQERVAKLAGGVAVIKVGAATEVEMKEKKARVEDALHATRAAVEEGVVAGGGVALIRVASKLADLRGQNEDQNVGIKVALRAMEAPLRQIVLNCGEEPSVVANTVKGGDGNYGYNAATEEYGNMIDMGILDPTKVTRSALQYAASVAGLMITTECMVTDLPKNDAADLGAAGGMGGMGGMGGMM

[2] = biological target: T1, GroEL chaperonin; assay: native gel or EMSA; non-denaturing electrophoresis of GroEL with equimolar fluorescein-labeled denatured proteins in the presence of DTT and Mg-ADP, before and after 10 min incubation with a two-fold molar excess of GroES; Coomassie staining and fluorescence; conditions: both partners purified

binding result [1]: binds
B1: biotin- and fluorescein-labeled pig mitochondrial malate dehydrogenase, early refolding intermediate (natural protein, UniProt P00346 25-338, looked up)
chain: AKVAVLGASGGIGQPLSLLLKNSPLVSRLTLYDIAHTPGVAADLSHIETRATVKGYLGPEQLPDCLKGCDVVVIPAGVPRKPGMTRDDLFNTNATIVATLTAACAQHCPDAMICIISNPVNSTIPITAEVFKKHGVYNPNKIFGVTTLDIVRANAFVAELKGLDPARVSVPVIGGHAGKTIIPLISQCTPKVDFPQDQLSTLTGRIQEAGTEVVKAKAGAGSATLSMAYAGARFVFSLVDAMNGKEGVVECSFVKSQETDCPYFSTPLLLGKKGIEKNLGIGKISPFEEKMIAEAIPELKASIKKGEEFVKNMK
modifications: fluorescein label (5(6)-FAM, SE); biotin (biotin succinimide ester)
notes: pig mitochondrial malate dehydrogenase; also called BFM; MDH; source: bought: Sigma or Serva, additionally purified by ion-exchange and size-exclusion chromatography

binding result [2]: binds
B2: GroES co-chaperonin (natural protein, Escherichia coli, UniProt P0A6F9 1-97, looked up)
chain: MNIRPLHDRVIVKRKEVETKSAGGIVLTGSAAAKSTRGEVLAVGNGRILENGEVKPLDVKVGDIVIFNDGYGVKSEKIDNEEVLIMSESDILAIVEA
notes: GroES (hsp10) co-chaperonin of Escherichia coli, expressed from the cloned groE operon; 7 identical subunits of ~10 kDa; no tag is mentioned; also called hsp10; GroES7; source: E. coli HB101, multicopy plasmid pGroE4 (groE operon of E. coli in pACYC184), purified
